Source: US20160009800A1 (XOMA US, published 2016)

B1: Ab077 (antibody, IgG2, V domains shown)
VH: EVQLVESGGGVVQPGGSLRLSCAASGFTFSSYWMTWVRQAPGKGLEWVANINQDGSEKHYVDSVKGRFTISRDNAKNSLYLQMNSLRGEDTAVYYCARGRGAWAFDYWGQGTLVTVSS
VL: DIQMTQSPSSLSASVGDRVTITCRASQGISSWLAWYQQKPGKAPKLLIYAASSLQSGVPSRFSGSGSGTDFTLTISSLQPEDFATYYCQQANSFPITFGQGTRLEIK
notes: also called XPA.015.243
B2: Ab078 (antibody, IgG2, V domains shown)
VH: QVQLVQSGGGLVQPGGSLRLSCAASGFTFSSYSMNWVRQAPGKGLEWVSSISSSSSYIYYADSVKGRFTISRDNAKNSLYLQMNSLRAEDTAVYYCARDQGGELLGFTGYFDYWGQGTLVTVSS
VL: DIQLTQSPSSLSASVGDRVTITCRASQGISSALAWYQQKPGKAPKVLIYDASSLERGVPSRFSGSGTGTDFTLTISSLQPEDFASYYCHQFNSYPDTFGQGTRLEIK
notes: also called XPA.015.244

Tests used:
[1] = target: T1, mouse insulin receptor complexed with human insulin (mouse; human, UniProt P15208 28-1372; P01308 25-54; P01308 90-110); assay: FACS, serum-starved CHO-K1 cells expressing mouse INSR, with insulin [cont'd]
T1 construct: whole, on cells;mature; also called muINSR/hINS complex
Description: (§1) Twenty five microliter aliquots of cells were plated into 96 well plates, mixed with 25 ul of antibody or PPE and incubated on ice for 1 h.
(§2) The cells were then washed once with FACS buffer and the binding of the antibody was detected by the addition of 25 ul of an appropriate fluorochrome-conjugated secondary antibody. […] After a final 15 min incubation on ice the cells were washed and the pellets resuspended in FACS buffer. The cells were analyzed on a FACSCAN™ (Becton-Dickinson, Milipitas, Calif.) and the data analyzed in both FLOWJO™ (Treestar, Ashland, Oreg.) and Microsoft Excel™.

[2] = target: T2, mouse insulin receptor (mouse, UniProt P15208 28-1372); assay: cell-based or functional assay
[3] = target: T3, human insulin receptor (human, UniProt P06213 28-1382); assay: cell-based or functional assay
[4] = target: T2, mouse insulin receptor; assay: FACS, serum-starved CHO-K1 cells expressing mouse INSR, no insulin [cont'd]
[5] = target: T4, human insulin receptor complexed with human insulin (human, UniProt P06213 28-1382; P01308 25-54; P01308 90-110); assay: FACS, serum-starved CHO-K1 cells expressing human INSR, with insulin [cont'd]
T4 construct: whole, on cells;mature; also called hINSR-hINS complex; INS/INSR complex

[6] = target: T3, human insulin receptor; assay: FACS, serum-starved CHO-K1 cells expressing human INSR, no insulin [cont'd]
[7] = target: T4, human insulin receptor complexed with …; assay: KinExA antibody depletion by hINSR8-CHOK1 cells, with 175 nM insulin
Description: Beads were rotated at room temperature for 6 hours then allowed to settle. Supernatant was replaced with PBS with 50 mg/mL BSA Fraction V (Sigma-Aldrich, St. Louis, Mo.) and rotated overnight at 4° C. […] On the KinExA 3000 the sample was injected at 0.25 mL/minute for 240 seconds, then rinsed for 60 seconds in running buffer (PBS with 0.05% sodium azide), then 240 seconds of the detection solution was injected, followed by a final 90 second wash at 1 mL/minute. The difference in voltage from an early initial time-point and a time point near the end of the run was measured and used to calculate affinities. The INSR concentration on the cells was estimated at 2.5×10⁵ receptors/cell. Affinity was determined using the KinExA software (Sāpidyne, Boise Id.) and EC50's were calculated by non-linear fit in Prism (GraphPad Software, La Jolla Calif.).
Samples were incubated overnight at 4° C. for 18 hours then centrifuged to pellet cells and supernatants were removed for testing on the KinExA. […] Detection solution used was R-PE-(Fab′)2 fragment goat anti-Human IgG(H+L) (Jackson Immuno Research, West Grove Pa.).

[8] = target: T5, rabbit insulin receptor (rabbit, UniProt A0A5F9DAH8 25-1377); assay: FACS on monocytes of rabbit PBMC, without insulin
T5 construct: whole, on cells
Excerpt: Cynomolgus monkey whole blood was obtained from California National Primate Research Center (Davis, Calif.) and rabbit whole blood was obtained from LifeSource Biomedical, LLC (Moffett Field, Calif.). Human PBMC were purified using Ficoll Hypaque from buffy coats obtained from the American Red Cross. Cynomolgus and Rabbit PBMC were than purified using Ficoll Hypaque gradients (Pharmacia). Purified PBMC were frozen and stored in liquid nitrogen prior to use in the assay. Human, cynomolgus and rabbit PBMC were thawed and washed with FACS Buffer (0.5% BSA and 0.1% NaN3 in PBS). Once the cells were prepared, they were used in the FACS staining assay at a final concentration of 2×10⁶ cells/ml.
After washing twice with FACS buffer, cells were stained with various markers to capture monocytes population. Human and cynomolgus cells were stained with CD45 and CD14. Rabbit cells were stained with CD11b and CD14. Antibodies were than incubated for 20 minutes and washed twice with FACS Buffer. Cells were than fixed with 2% paraformaldehyde and equal volume of FACS Buffer was added prior to cell analysis. The cells were analyzed on a FACScan™ (Becton-Dickinson, Franklin Lakes, N.J.) and the data was analyzed using both FloJo™ (Tristar, Paso Robles, Calif.) and GraphPad Prism 5 (GraphPad Software, La Jolla, Calif.).

[9] = target: T1, mouse insulin receptor complexed with …; assay: FACS, CHO-K1 mouse INSR cells, signal with insulin divided by signal without insulin [cont'd]
Description: as §1, §2

[10] = target: T4, human insulin receptor complexed with …; assay: FACS, CHO-K1 human INSR cells, signal with insulin divided by signal without insulin [cont'd]
Description: as §1, §2

[11] = target: T3, human insulin receptor; assay: cell-based or functional assay; remark: listed apart in the source
[12] = target: T5, rabbit insulin receptor; assay: FACS on monocytes of rabbit PBMC and on CHO cells expressing rabbit insulin receptor, without insulin

| Binder | FACS area under log transformed data MFI [1] | fold-change in insulin EC50 (pAkt) relative to isotype control, 20 ug/ml Ab077, mouse INSR CHO-K1 cells [2] [fold] | fold-change in insulin EC50 (pAkt) relative to isotype control, 10 ug/ml Ab077, human INSR CHO-K1 cells [3] [fold] | FACS area under log transformed data MFI [4] | FACS area under log transformed data MFI [5] | FACS area under log transformed data MFI [6] | Kd [7] [nM] | binding result [8] | FACS area under log transformed data MFI ratio (+insulin/-insulin) [9] | FACS area under log transformed data MFI ratio (+insulin/-insulin) [10] | fold-change in insulin EC50 (pAkt) relative to isotype control, 20 ug/ml Ab078, human INSR CHO-K1 cells [3] [fold] | pAKT assay, fold-decrease in insulin EC50 relative to isotype control Ab [11] [fold] | binding result [12] |
| --- | --- | --- | --- | --- | --- | --- | --- | --- | --- | --- | --- | --- | --- |
| B1 | 103 | 8 | 9 | 45 | 268 | 127 | 6.4 | no binding | 2.28 | 2.12 |  |  |  |
| B2 | 217 |  |  |  | 704 | 11 | 0.34 |  | 17.6 | 66 | 3 | 3.3 | no binding |
